What was measured:
[1] = system: His-tagged cleavage resistant pro-NGF (point mutant, K-R cleavage site at 120,121 mutated to A-A)
[2] = system: T1, rat BDNF secreted by adenovirus-infected 293T or endothelial cells (proforms of 30 kDa and 28 kDa)
T1 sequence: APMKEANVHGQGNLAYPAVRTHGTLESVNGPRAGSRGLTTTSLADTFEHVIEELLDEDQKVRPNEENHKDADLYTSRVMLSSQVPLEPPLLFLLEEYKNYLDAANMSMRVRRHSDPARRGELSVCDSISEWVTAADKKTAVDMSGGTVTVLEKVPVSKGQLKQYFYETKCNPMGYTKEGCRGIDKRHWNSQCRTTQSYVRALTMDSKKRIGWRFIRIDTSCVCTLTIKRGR

B1: MMP-7 (enzyme, UniProt P09237 95-267, looked up, species assumed)
Matrilysin: YSLFPNSPKWTSKVVTYRIVSYTRDLPHITVDRLVSKALNMWGKEIPLHFRKVVWGTADIMIGFARGAHGDSYPFDGPGNTLAHAFAPGTGLGGDAHFDEDERWTDGSSLGINFLYAATHELGHSLGMGHSSDPNAVMYPTYGNGDPQNFKLSQDDIKGIQKLYGKRSNSRKK
- proteolytic cleavage, Western blot [1]: incubation of the pro-NGF with MMP-7 but not MMP-2, -3, or -9 resulted in cleavage of the 30 kD proform of NGF to the 17 kD form
- proteolytic cleavage in endothelial media, Western blot [2]: In endothelial media, only plasmin and MMP-7 appeared to cleave the large proform
- proteolytic cleavage, Western blot [2]: Treatment of the media with recombinant MMP7 resulted in a reduction in the high molecular weight isoforms of 30 kDa or 28 kDa, and the generation of a novel form of approximately 17 kDa
